Test system: MS2 coat protein
Test: apparent KD of MS2 coat protein; designed switch direction (-1 OFF switch, 1 ON switch): -1; higher = weaker reporter binding
Summary of the method: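 Designed RNA switches with common flanks were made on Illumina chips by stalled E. coli RNA polymerase. Titration with SNAP-549-labelled MS2 coat protein doubled from 0.7 or 1.5 nM up to 3 µM. Apparent KD is each design's median over clusters after curve-fitting normalised fluorescence.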

[1] = input ligand: microRNA oligo, concentration not stated
[2] = Eterna round: R95, input ligand: microRNA oligo, concentration not stated
[3] = Eterna round: R95, input ligand: FMN 200 uM
[4] = Eterna round: R95, input ligand: none

Sequence | apparent KD of MS2 coat protein (input ligand: FMN 200 uM) [nM] | apparent KD of MS2 coat protein [1] [nM] | apparent KD of MS2 coat protein (input ligand: none) [nM] | apparent KD of MS2 coat protein [2] [nM] | apparent KD of MS2 coat protein [3] [nM] | apparent KD of MS2 coat protein [4] [nM]
UUGGUUGUGGUAGGAUAUCCGUUGGAAACCGUCGGAGAAGGACCACAGUCACUGGGUCUUUGUCUGGUGGACUGGAAUCACCAU [pwkr exNG1 F6.21] (Eterna round: R96, puzzle: Exclusion NG 1) | 295 | 157 | 224 | – | – | –
UUGGUUGUGGUAGGAUAUCCGUUGGAAACUGUUGGAGAAGGACCACAGUCACUGGGUCCUUCUUUGGUGGAGUGGAAGAACCAU [pwkr exNG1 F6.17] (Eterna round: R96, puzzle: Exclusion NG 1) | 131 | 192 | 167 | – | – | –
UUGUAGUCAGGAUAUACAUGAGGAUCACCCAUGUAAAAUUUUAAUUUAAUUUGAAGGUGUAGAAGGGACCAGUU [Ex3 #24] (Eterna round: R97, puzzle: Exclusion 3) | 36.5 | – | 43.4 | – | – | –
UUGUGCAAAGGAUAUACGUCCGACCUCGUGGAACUGAGAAUACAUGAGGAUCACCCAUGUAGAAGGUUGCCGAG [Racereus] (puzzle: Exclusion 2) | – | – | – | 10.5 | – | –
UUGUUAUAUGAAGGAUAUACUUAACAUGAGGAUCACCCAUGUGGUGUUGUGAGUGAGUGAGUUUAGUAGAAGGUCAAUUAUUUU [JMF's solution 29] (Eterna round: R96, puzzle: Exclusion NG 2) | 1340 | 380 | 492 | – | – | –
UUGUUCAGAGGAUAUACAUGAGGAUCACCCAUGUGUUUCAGCUAGGAGACUAGCGAAAGUAGAAGGCUGUACUC [salish99_ex3_r4_016] (Eterna round: R97, puzzle: Exclusion 3) | 30.5 | – | 25.6 | – | – | –
UUGUUCCAUGUAGGAUAUGCAUAUUCUUAUUAUGCAGAAGGACAUGAGGAUCACCCAUGUAUGUUAUUAUUAUAUGUUACAUGU [Design 1] (Eterna round: R96, puzzle: Exclusion NG 1) | – | 56.7 | – | – | – | –
UUGUUGUAUGUAGGAUAUGCGUAUUAUUAUUAUGCAGAAGGACAUGAGGAUCACCCAUGUAUAUUAUUAUUAUAUGUUAUAUAU [Title] (Eterna round: R96, puzzle: Exclusion NG 1) | – | 17.9 | – | – | – | –
UUGUUGUGUGUAGGAUAUGCAUAUUAUUAUUAUGCAGAAGGACAUGAGGAUCACCCAUGUGUAUUAUUAUUAUAUAUUAUAUAU [Title] (Eterna round: R96, puzzle: Exclusion NG 1) | – | 18.3 | – | – | – | –
UUUAAAACAUAGGAUAUCGAAAUUAUCAUUUAACGAGAAGGAUGAACAUGAGGAUCACCCAUGUGGUAUCAUGG [Mat - Exclusion 6 - JL Mod - D17] (puzzle: Exclusion 6) | – | – | – | 184 | 202 | 123
UUUAAUUUUUUUUUUUUACAAGCUUUUUGCUCGUCUUAUACAUGAGGAUCACCCAUGUAAGUGGAGGGUAAAUUAUC [JMF 87] (puzzle: Sensor v3, turn-off variant 2) | – | – | – | 39.4 | 19.4 | 15.2
UUUAAUUUUUUUUUUUUACAAGCUUUUUGCUCGUCUUAUACAUGAGGAUCACCCAUGUAGAUGGGAAGUAAAUUAUC [JMF 53] (puzzle: Sensor v3, turn-off variant 2) | – | – | – | 200 | 24.7 | 24.5
UUUAAUUUUUUUUUUUUACAAGCUUUUUGCUCGUCUUAUACAUGAGGAUCACCCAUGUAGGUGAGGGAUAAAUUAUC [JMF 43] (puzzle: Sensor v3, turn-off variant 2) | – | – | – | 150 | 29.1 | 27.3
UUUAAUUUUUUUUUUUUACAAGCUUUUUGCUCGUCUUAUACAUGAGGAUCACCCAUGUAGGUGGAGGAUAAAUUAUC [JMF 36] (puzzle: Sensor v3, turn-off variant 2) | – | – | – | 56.1 | 23.5 | 25.5

— the supplement of paper PMC9170038
